This is an account of results in patent publication US20140023646A1.

pKd: −log10 of the molar value.

Assay [1] addresses recombinant KIR 2DL3 protein (entire extracellular domain, produced in E. coli, refolded) (human) (UniProt P43628). Put plainly: SPR (Biacore), KIR 2DL3 immobilized on CM5 chip, soluble antibody as analyte. For orientation: In SPR one partner is held on a chip, and binding of the other changes the refractive index at the surface.
Assay [2] addresses recombinant KIR 2DL1 protein (entire extracellular domain, produced in E. coli, refolded) (human) (UniProt P43626). Put plainly: SPR (Biacore), KIR 2DL1 immobilized on CM5 chip, soluble antibody as analyte.
Assay [3] has as its target KIR receptors on NK cells (all inhibitory KIR2DL receptors). Put plainly: cell-based or functional assay.

In general, pKd refers to −log10 of the Kd, conventionally taken in molar units. As to “monoclonal antibody DF200 produced by hybridoma DF200”, the figures for the pKd in assay [1] and in assay [2] were 8.70 and 7.96, respectively.

“human anti-KIR monoclonal antibody 1-7F9”: the increased expression of CD107a on NK cells in assay [3] is 0.5 to 13.6%.
